From paper PMC11574045, “A cofactor-induced repressive type of transcription factor condensation can be induced by synthetic peptides to suppress tumorigenesis” (The EMBO Journal, 2024)

B1: ASCL4 (protein, UniProt Q6XD76 1-172, looked up)
Achaete-scute homolog 4: METRKPAERLALPYSLRTAPLGVPGTLPGLPRRDPLRVALRLDAACWEWARSGCARGWQYLPVPLDSAFEPAFLRKRNERERQRVRCVNEGYARLRDHLPRELADKRLSKVETLRAAIDYIKHLQELLERQAWGLEGAAGAVPQRRAECNSDGESKASSAPSPSSEPEEGGS
B2: MESP1 (protein, UniProt Q9BRJ9 1-268, looked up)
Mesoderm posterior protein 1: MAQPLCPPLSESWMLSAAWGPTRRPPPSDKDCGRSLVSSPDSWGSTPADSPVASPARPGTLRDPRAPSVGRRGARSSRLGSGQRQSASEREKLRMRTLARALHELRRFLPPSVAPAGQSLTKIETLRLAIRYIGHLSAVLGLSEESLQRRCRQRGDAGSPRGCPLCPDDCPAQMQTRTQAEGQGQGRGLGLVSAVRAGASWGSPPACPGARAAPEPRDPPALFAEAACPEGQAMEPSPPSPLLPGDVLALLETWMPLSPLEWLPEEPK
B3: MLLT10 (protein, UniProt P55197 1-1068, looked up)
Protein AF-10: MVSSDRPVSLEDEVSHSMKEMIGGCCVCSDERGWAENPLVYCDGHGCSVAVHQACYGIVQVPTGPWFCRKCESQERAARVRCELCPHKDGALKRTDNGGWAHVVCALYIPEVQFANVSTMEPIVLQSVPHDRYNKTCYICDEQGRESKAATGACMTCNKHGCRQAFHVTCAQFAGLLCEEEGNGADNVQYCGYCKYHFSKLKKSKRGSNRSYDQSLSDSSSHSQDKHHEKEKKKYKEKDKHKQKHKKQPEPSPALVPSLTVTTEKTYTSTSNNSISGSLKRLEDTTARFTNANFQEVSAHTSSGKDVSETRGSEGKGKKSSAHSSGQRGRKPGGGRNPGTTVSAASPFPQGSFSGTPGSVKSSSGSSVQSPQDFLSFTDSDLRNDSYSHSQQSSATKDVHKGESGSQEGGVNSFSTLIGLPSTSAVTSQPKSFENSPGDLGNSSLPTAGYKRAQTSGIEEETVKEKKRKGNKQSKHGPGRPKGNKNQENVSHLSVSSASPTSSVASAAGSITSSSLQKSPTLLRNGSLQSLSVGSSPVGSEISMQYRHDGACPTTTFSELLNAIHNGIYNSNDVAVSFPNVVSGSGSSTPVSSSHLPQQSSGHLQQVGALSPSAVSSAAPAVATTQANTLSGSSLSQAPSHMYGNRSNSSMAALIAQSENNQTDQDLGDNSRNLVGRGSSPRGSLSPRSPVSSLQIRYDQPGNSSLENLPPVAASIEQLLERQWSEGQQFLLEQGTPSDILGMLKSLHQLQVENRRLEEQIKNLTAKKERLQLLNAQLSVPFPTITANPSPSHQIHTFSAQTAPTTDSLNSSKSPHIGNSFLPDNSLPVLNQDLTSSGQSTSSSSALSTPPPAGQSPAQQGSGVSGVQQVNGVTVGALASGMQPVTSTIPAVSAVGGIIGALPGNQLAINGIVGALNGVMQTPVTMSQNPTPLTHTTVPPNATHPMPATLTNSASGLGLLSDQQRQILIHQQQFQQLLNSQQLTPEQHQAFLYQLMQHHHQQHHQPELQQLQIPGPTQIPINNLLAGTQAPPLHTATTNPFLTIHGDNASQKVARLSDKTGPVAQEKS
B4: MLR2 (protein, UniProt Q96JN0 1-433, looked up)
Ligand-dependent corepressor: MQRMIQQFAAEYTSKNSSTQDPSQPNSTKNQSLPKASPVTTSPTAATTQNPVLSKLLMADQDSPLDLTVRKSQSEPSEQDGVLDLSTKKSPCAGSTSLSHSPGCSSTQGNGRPGRPSQYRPDGLRSGDGVPPRSLQDGTREGFGHSTSLKVPLARSLQISEELLSRNQLSTAASLGPSGLQNHGQHLILSREASWAKPHYEFNLSRMKFRGNGALSNISDLPFLAENSAFPKMALQAKQDGKKDVSHSSPVDLKIPQVRGMDLSWESRTGDQYSYSSLVMGSQTESALSKKLRAILPKQSRKSMLDAGPDSWGSDAEQSTSGQPYPTSDQEGDPGSKQPRKKRGRYRQYNSEILEEAISVVMSGKMSVSKAQSIYGIPHSTLEYKVKERLGTLKNPPKKKMKLMRSEGPDVSVKIELDPQGEAAQSANESKNE
B5: MLXIP (protein, UniProt Q9HAP2 2-919, looked up)
MLX-interacting protein: AADVFMCSPRRPRSRGRQVLLKPQVSEDDDDSDTDEPSPPPASGAATPARAHASAAPPPPRAGPGREEPPRRQQIIHSGHFMVSSPHREHPPKKGYDFDTVNKQTCQTYSFGKTSSCHLSIDASLTKLFECMTLAYSGKLVSPKWKNFKGLKLQWRDKIRLNNAIWRAWYMQYLEKRKNPVCHFVTPLDGSVDVDEHRRPEAITTEGKYWKSRIEIVIREYHKWRTYFKKRLQQHKDEDLSSLVQDDDMLYWHKHGDGWKTPVPMEEDPLLDTDMLMSEFSDTLFSTLSSHQPVAWPNPREIAHLGNADMIQPGLIPLQPNLDFMDTFEPFQDLFSSSRSIFGSMLPASASAPVPDPNNPPAQESILPTTALPTVSLPDSLIAPPTAPSLAHMDEQGCEHTSRTEDPFIQPTDFGPSEPPLSVPQPFLPVFTMPLLSPSPAPPPISPVLPLVPPPATALNPPAPPTFHQPQKFAGVNKAPSVITHTASATLTHDAPATTFSQSQGLVITTHHPAPSAAPCGLALSPVTRPPQPRLTFVHPKPVSLTGGRPKQPHKIVPAPKPEPVSLVLKNARIAPAAFSGQPQAVIMTSGPLKREGMLASTVSQSNVVIAPAAIARAPGVPEFHSSILVTDLGHGTSSPPAPVSRLFPSTAQDPLGKGEQVPLHGGSPQVTVTGPSRDCPNSGQASPCASEQSPSPQSPQNNCSGKSDPKNVAALKNRQMKHISAEQKRRFNIKMCFDMLNSLISNNSKLTSHAITLQKTVEYITKLQQERGQMQEEARRLREEIEELNATIISCQQLLPATGVPVTRRQFDHMKDMFDEYVKTRTLQNWKFWIFSIIIKPLFESFKGMVSTSSLEELHRTALSWLDQHCSLPILRPMVLSTLRQLSTSTSILTDPAQLPEQASKAVTRIGKRLGES
B6: MNAT1 (protein, UniProt P51948 1-309, looked up)
CDK-activating kinase …: MDDQGCPRCKTTKYRNPSLKLMVNVCGHTLCESCVDLLFVRGAGNCPECGTPLRKSNFRVQLFEDPTVDKEVEIRKKVLKIYNKREEDFPSLREYNDFLEEVEEIVFNLTNNVDLDNTKKKMEIYQKENKDVIQKNKLKLTREQEELEEALEVERQENEQRRLFIQKEEQLQQILKRKNKQAFLDELESSDLPVALLLAQHKDRSTQLEMQLEKPKPVKPVTFSTGIKMGQHISLAPIHKLEEALYEYQPLQIETYGPHVPELEMLGRLGYLNHVRAASPQDLAGGYTSSLACHRALQDAFSGLFWQPS
B7: MSGN1 (protein, UniProt A6NI15 1-193, looked up)
Mesogenin-1: MDNLRETFLSLEDGLGSSDSPGLLSSWDWKDRAGPFELNQASPSQSLSPAPSLESYSSSPCPAVAGLPCEHGGASSGGSEGCSVGGASGLVEVDYNMLAFQPTHLQGGGGPKAQKGTKVRMSVQRRRKASEREKLRMRTLADALHTLRNYLPPVYSQRGQPLTKIQTLKYTIKYIGELTDLLNRGREPRAQSA
B8: MTDH (protein, UniProt Q86UE4 1-582, looked up)
Protein LYRIC: MAARSWQDELAQQAEEGSARLREMLSVGLGFLRTELGLDLGLEPKRYPGWVILVGTGALGLLLLFLLGYGWAAACAGARKKRRSPPRKREEAAAVPAAAPDDLALLKNLRSEEQKKKNRKKLSEKPKPNGRTVEVAEGEAVRTPQSVTAKQPPEIDKKNEKSKKNKKKSKSDAKAVQNSSRHDGKEVDEGAWETKISHREKRQQRKRDKVLTDSGSLDSTIPGIENTITVTTEQLTTASFPVGSKKNKGDSHLNVQVSNFKSGKGDSTLQVSSGLNENLTVNGGGWNEKSVKLSSQISAGEEKWNSVSPASAGKRKTEPSAWSQDTGDANTNGKDWGRSWSDRSIFSGIGSTAEPVSQSTTSDYQWDVSRNQPYIDDEWSGLNGLSSADPNSDWNAPAEEWGNWVDEERASLLKSQEPIPDDQKVSDDDKEKGEGALPTGKSKKKKKKKKKQGEDNSTAQDTEELEKEIREDLPVNTSKTRPKQEKAFSLKTISTSDPAEVLVKNSQPIKTLPPATSTEPSVILSKSDSDKSSSQVPPILQETDKSKSNTKQNSVPPSQTKSETSWESPKQIKKKKKARRET
B9: MUSCLIN (protein, UniProt P61366 28-133, looked up)
Osteocrin: VDVTTTEAFDSGVIDVQSTPTVREEKSATDLTAKLLLLDELVSLENDVIETKKKRSFSGFGSPLDRLSAGSVDHKGKQRKVVDHPKRRFGIPMDRIGRNRLSNSRG
B10: MXD4 (protein, UniProt Q14582 1-209, looked up)
Max dimerization protein 4: MELNSLLILLEAAEYLERRDREAEHGYASVLPFDGDFAREKTKAAGLVRKAPNNRSSHNELEKHRRAKLRLYLEQLKQLVPLGPDSTRHTTLSLLKRAKVHIKKLEEQDRRALSIKEQLQQEHRFLKRRLEQLSVQSVERVRTDSTGSAVSTDDSEQEVDIEGMEFGPGELDSVGSSSDADDHYSLQSGTGGDSGFGPHCRRLGRPALS
B11: MYCBP (protein, UniProt Q99417 2-103, looked up)
c-Myc-binding protein: AHYKAADSKREQFRRYLEKSGVLDTLTKVLVALYEEPEKPNSALDFLKHHLGAATPENPEIELLRLELAEMKEKYEAIVEENKKLKAKLAQYEPPQEEKRAE
B12: MYNN (protein, UniProt Q9NPC7 1-610, looked up)
Myoneurin: MQYSHHCEHLLERLNKQREAGFLCDCTIVIGEFQFKAHRNVLASFSEYFGAIYRSTSENNVFLDQSQVKADGFQKLLEFIYTGTLNLDSWNVKEIHQAADYLKVEEVVTKCKIKMEDFAFIANPSSTEISSITGNIELNQQTCLLTLRDYNNREKSEVSTDLIQANPKQGALAKKSSQTKKKKKAFNSPKTGQNKTVQYPSDILENASVELFLDANKLPTPVVEQVAQINDNSELELTSVVENTFPAQDIVHTVTVKRKRGKSQPNCALKEHSMSNIASVKSPYEAENSGEELDQRYSKAKPMCNTCGKVFSEASSLRRHMRIHKGVKPYVCHLCGKAFTQCNQLKTHVRTHTGEKPYKCELCDKGFAQKCQLVFHSRMHHGEEKPYKCDVCNLQFATSSNLKIHARKHSGEKPYVCDRCGQRFAQASTLTYHVRRHTGEKPYVCDTCGKAFAVSSSLITHSRKHTGEKPYICGICGKSFISSGELNKHFRSHTGERPFICELCGNSYTDIKNLKKHKTKVHSGADKTLDSSAEDHTLSEQDSIQKSPLSETMDVKPSDMTLPLALPLGTEDHHMLLPVTDTQSPTSDTLLRSTVNGYSEPQLIFLQQLY
B13: ATF1 (protein, UniProt P18846 1-271, looked up)
Cyclic AMP-dependent …: MEDSHKSTTSETAPQPGSAVQGAHISHIAQQVSSLSESEESQDSSDSIGSSQKAHGILARRPSYRKILKDLSSEDTRGRKGDGENSGVSAAVTSMSVPTPIYQTSSGQYIAIAPNGALQLASPGTDGVQGLQTLTMTNSGSTQQGTTILQYAQTSDGQQILVPSNQVVVQTASGDMQTYQIRTTPSATSLPQTVVMTSPVTLTSQTTKTDDPQLKREIRLMKNREAARECRRKKKEYVKCLENRVAVLENQNKTLIEELKTLKDLYSNKSV

What follows are molecules tested on HEK293FT cells transfected with TF library (assay: Screening of TF condensates based on fluorescent puncta). Conditions: Figure 1B numerical data; TF library screen, one value per transcriptional factor.
Type: cell-based
Outline: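 Cells were seeded onto plasmid/PEI-loaded wells (plasmid 1.6 μg/ml final) and grown 60 h. Medium with or without glucose followed for 12 h. Fixed, permeabilized cells were stained against Flag or GAL4 tags, and condensate puncta were quantified from 50 random fields per well.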

Row | Molecule | Z score of condensed fraction
1 | B1 | 1.17
2 | B2 | -1.02
3 | B3 | 0.7939
4 | B4 | 0.991
5 | B5 | -0.5131
6 | B6 | -0.8808
7 | B7 | 0.1411
8 | B8 | 1.2714
9 | B9 | 0.265
10 | B10 | -0.9909
11 | B11 | -0.1227
12 | B12 | -0.5885
13 | B13 | -0.9514
